Test results as given in PMC7889724.

Target: T1, recombinant full-length GST-UVR8 (Arabidopsis), Q9FN03
T1 chain: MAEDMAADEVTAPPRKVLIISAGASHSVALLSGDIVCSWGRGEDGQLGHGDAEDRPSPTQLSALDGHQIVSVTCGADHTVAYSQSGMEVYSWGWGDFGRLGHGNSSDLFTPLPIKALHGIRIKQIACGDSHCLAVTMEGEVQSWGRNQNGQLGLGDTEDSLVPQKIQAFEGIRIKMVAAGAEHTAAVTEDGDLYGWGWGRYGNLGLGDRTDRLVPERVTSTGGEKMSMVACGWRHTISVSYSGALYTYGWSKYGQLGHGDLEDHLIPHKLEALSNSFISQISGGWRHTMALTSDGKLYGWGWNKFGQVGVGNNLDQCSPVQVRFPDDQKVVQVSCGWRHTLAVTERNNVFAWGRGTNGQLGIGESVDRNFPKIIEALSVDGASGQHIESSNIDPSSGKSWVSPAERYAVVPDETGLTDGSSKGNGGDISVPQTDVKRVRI
Assay: SDS-PAGE of non-boiled protein
Conditions: remark: other sources report otherwise

stoichiometry N: 2
B1: recombinant full-length GST-UVR8, Q9FN03 1-440 (receptor)
chain: T1 chain
